The labels stand for the following.
B1: mRNA-splicing (parent)
chain: AGUUGCUGCUGGGAGCUCCAGCACAGUGAAAUGGACAGAAGGGCAGAGCAA

The variants in the data set derive from B1. The experiment in a line: exon inclusion enrichment index; higher = more inclusion; WT1 exon 5 minigene, HEK293.
On to G2A U3G G5A C6G U7G C9A, for which the “exon inclusion enrichment index” value was determined as 0.00228.
The figure for G5C C6G U7C U10C A20G G21A is 3.62.
As for G5C C6G U7C U10C U17G C18G, the “exon inclusion enrichment index” value was 2.48.
The figure for G5C C6U G8C C9U U10C G46U A47G is 1.76.
As for A20C G21U, the figure is 1.49; as for G5C C6U G8C C9U U10C A23G C24U, 0.696; as for G5C C6U G8C C9U U10C G15A C16G, 1.28.
The figure for G5A U7C G8A U10C G41U is 2.09.
Take G5A U7C G8A U10C A30G A31G: the “exon inclusion enrichment index” value amounted to 0.823.
As for G5A U7C G8A U10C C18A C19G, the figure is 0.297; as for A40C, 0.557; as for C6A U7A C9A U10A A39G A40U, 0.0506.
As for C6A U7C C9A U10C A20U, the figure is 3.39; as for C6A U7C C9A U10C A20C, 3.02; as for G5A U7C G8A U10C A14C G15A, 0.731.
C6A U7C C9A U10C U17C C18G: the “exon inclusion enrichment index” value is 3.74.
The figure for G5A U7C G8A U10C G41U G42C is 2.97; for G42C G43U it is 0.634.
The figure for C6A U7A C9A U10A G28U A29U is 0.122; for C6A U7C C9A U10C G15A C16G it is 2.11.
With G2C U3G G5C C6A U7C G8A U10A, the “exon inclusion enrichment index” value worked out at 0.148.
As for G5C C6U G8C C9U U10C A29G A30C, the “exon inclusion enrichment index” value was determined as 0.838.
On to G5C C6U G8C C9U U10C A29G A30U, for which the “exon inclusion enrichment index” value was 0.538.
Turning to C6A U7C C9A U10C G13U A14U, the “exon inclusion enrichment index” value is 2.48.
As for G5A C6U U7A G8U C9A A30G A31G, the figure is 0.00768; as for C6A U7C C9A U10C A35C C36G, 2.56; as for G5A C6U U7A G8U C9A A25C G26C, 0.0828.
The figure for G5A C6U U7A G8U C9A A25C G26A is 0.223; for C6A U7A C9A U10A G33C G34U it is 0.522; for C6A U7A C9A U10A G33C G34A it is 0.421.
As for G5C, the figure is 0.147; as for A29G, 0.272; as for G5A C6U U7A G8U C9A A20G G21C, 0.11.
Regarding G2C U3A C6A U7A C9A U10A, the “exon inclusion enrichment index” value stood at 0.863.
The figure for G5A C6U U7A G8U C9A A37C is 0.285; for G2C U3C it is 0.044; for A29G A30C it is 0.0218.
As for G5C C6G U7C U10C C22A A23U, the figure is 2.83.
The figure for G28C A29G is 0.405; for U3C U4A G5C C6G U7C U10C it is 2.55.
In the case of C6A U7C C9A U10C C24U A25U, the “exon inclusion enrichment index” value was found to be 2.88.
On to G5A U7C G8A U10C C18G C19A, for which the “exon inclusion enrichment index” value was 2.92.
The figure for G5C C6A U7C G8A U10A G34U A35G is 0.0186.
The figure for G5A C6U U7A G8U C9A C24G A25C is 0.392; for G5A C6G U7G C9A A37G it is 0.00135.
In the case of C6A U7A C9A U10A G34A A35G, the “exon inclusion enrichment index” value came to 0.208.
As for G5A U7C G8A U10C G15U C16A, the figure is 1.58.
The figure for G5C C6A U7C G8A U10A A30C A31G is 0.372; for G5A C6G U7G C9A G11C it is 0.00307; for G21U it is 1.52.
The figure for G5C C6G U7C U10C A14U G15A is 1.41; for G5C C6G U7C U10C A14U G15U it is 1.46; for G5A U7C G8A U10C G46A it is 2.32.
Consider G5C C6A U7C G8A U10A G15U C16G, for which the “exon inclusion enrichment index” value came to 0.018.
As for G5C C6G U7C G8U C9U U10C, the figure is 2.82; as for G5A C6U U7A G8U C9A A35G C36U, 0.00124; as for U27A G28A, 0.181.
As for G5U G8U C9U U32A G33U, the figure is 0.0405; as for U3G U4A C6A U7A C9A U10A, 0.213.
The figure for G5C C6U G8A U10A is 0.0597.
As to G5A C6G U7G C9A A30U, the “exon inclusion enrichment index” value amounted to 0.00076.
For the variant G5A C6U U7A G8U C9A C16G, the “exon inclusion enrichment index” value stood at 0.0112.
As for G5C C6A U7C G8A U10A G13C, the “exon inclusion enrichment index” value stood at 0.0242.
The figure for G5C C6U G8C C9U U10C is 2.2; for G5C C6G U7C U10C C36A A37C it is 3.59; for G5A C6G U7G C9A G42A G43U it is 0.0457.
As for G5A C6U U7A G8U C9A G42C G43C, the “exon inclusion enrichment index” value came out at 0.451.
On to G5A U7C G8A U10C C36G A37U, for which the “exon inclusion enrichment index” value turned out to be 1.08.
As for G5A U7C G8A U10C A25G, the figure is 3.43; as for C6A U7A C9A U10A G46U A47G, 0.587.
As for G5A U7C G8A U10C A35C C36G, the figure is 2.06; as for C6A U7A C9A U10A U17A C18G, 0.498.
The figure for G5A C6G U7G C9A A29U is 0.000861.
With U4A U7C G8A U10C, the “exon inclusion enrichment index” value was 0.474.
The figure for C6A U7A C9A U10A A31C is 0.898; for U4G G5U U7C G8A U10C it is 2.16; for G5C C6G U7C U10C C44A A45C it is 4.3.
The figure for G5U G8U C9U G11U G12A is 0.00214; for C6A U7A C9A U10A U27C it is 1.97; for G5C C6G U7C U10C C19G A20C it is 2.89.
The figure for G5C C6U G8C C9A U10C is 2.36; for G5C C6G U7C G8C C9U U10C it is 2.8.
For C6A U7C C9A U10C A37U G38U, the “exon inclusion enrichment index” value is 1.27.
The figure for C6A U7C C9A U10C C36G A37U is 1.89.
For G5C C6G U7C U10C A39C A40G, the “exon inclusion enrichment index” value turned out to be 3.52.
As for U3A U4G C6A U7C C9A U10C, the figure is 1.54.
Turning to G5A C6G U7G C9A C24G A25C, the “exon inclusion enrichment index” value was 0.00471.
The figure for G5U G8U C9U G34A is 0.0562.
The figure for G5A U7C G8A U10C G41C G42U is 3.05; for G5A C6G U7G C9A U27C G28C it is 0.0122; for G5C C6A U7C G8A U10A C44U A45C it is 0.252.
On to C6A U7C C9A U10C G12A G13A, for which the “exon inclusion enrichment index” value amounted to 2.17.
The figure for C6A U7C G8A C9A U10A is 0.265; for G5C C6A U7C G8A U10A A39C A40G it is 0.142.
As for G5A C6G U7G C9A A30G A31G, the “exon inclusion enrichment index” value was 0.00115.
The figure for C6A U7A C9A U10A A30U A31C is 0.579; for G5U G8U C9U A20G G21U it is 0.195.
As for G12A, the figure is 1.7; as for G5C C6U G8C C9U U10C U27C G28U, 1.2; as for C6A U7C C9A U10C A30G A31U, 1.6.
As for G5C C6U G8C C9U U10C U27C, the figure is 3.63; as for G5A U7C G8A U10C G38A A39U, 0.204.
With G5U G8U C9U A30G A31G, the “exon inclusion enrichment index” value worked out at 0.0186.
On to G5A U7C G8A U10C A25U G26C, for which the “exon inclusion enrichment index” value was determined as 2.25.
The figure for G5A C6U U7A G8U C9A G28A A29C is 0.0311; for G5A C6U U7A G8U C9A A29C A30G it is 0.219.
The figure for G5C C6G G8U C9U is 1.08.
The figure for C6A U7C C9A U10C A29U A30G is 3.55.
Turning to G5C C6U G8C C9U U10C G11C G12U, the “exon inclusion enrichment index” value came to 0.675.
As for G5A C6G G8U C9U, the figure is 0.00331; as for C6A U7A C9G U10G, 0.0939.
As for G5U G8U C9U C16G U17C, the figure is 0.0319.
G5C C6A U7C G8A U10A G28U: the “exon inclusion enrichment index” value was 0.00934.
As for C6A U7A C9A U10A G11C, the figure is 3.21.
As for C6A U7A C9A U10A G11U, the figure is 2.89.
For G5C C6A U7C G8A U10A G11A G12A, the “exon inclusion enrichment index” value turned out to be 0.202.
As for G5A U7C G8A U10C A35U C36G, the figure is 0.19; as for G5C C6U G8C C9U U10C G34U, 0.391; as for C6A U7A C9A G11C, 3.26.
As for C6A U7C C9A U10C A40C G41C, the figure is 3.56.
As for G5C C6U G8C C9U U10C G26A U27C, the figure is 3.55.
Take C6A U7A C9A U10A A39U A40G: the “exon inclusion enrichment index” value amounted to 0.0729.
The figure for G5A U7C G8A U10C A39G A40C is 2.53.
As for G5A U7C G8A U10C C36U, the figure is 0.719.
The figure for G5A U7C G8A U10C C36G is 1.55; for U27C G28U it is 0.00627; for A14G G15A it is 0.102.
Take A14G G15C: the “exon inclusion enrichment index” value is 0.0893.
As for G43U, the figure is 0.11.
As for G5A C6G U7G C9A G12U G13A, the figure is 0.000517.
As for C6A U7A C9A U10A U17G C18A, the figure is 0.619.
C6A U7C C9A U10C C22U A23U: the “exon inclusion enrichment index” value worked out at 2.51.
As for G5C C6A U7C G8A C9A U10A, the figure is 0.239.
The figure for G5U C6U U7G C9A is 0.469.
As for G34A A35U, the “exon inclusion enrichment index” value came out at 0.0211.
Turning to G5U G8U C9U A37G G38U, the “exon inclusion enrichment index” value amounted to 0.0298.
As for G5C C6U G8C C9U U10C C18A, the figure is 1.39.
As for G5C C6U G8C C9U U10C A39G A40C, the figure is 1.79; as for U3A U4G G5A C6G U7G C9A, 0.018; as for G5C C6U G8C C9U U10C U32G G33A, 0.468.
The figure for G5C C6U G8C C9U U10C U32G G33C is 1.97; for U3G it is 0.0194.
As for G5A U7C G8A U10C C24A, the “exon inclusion enrichment index” value came out at 2.26.
The figure for G5A U7C G8A U10C G12U G13C is 0.477; for G5C C6G U7C U10C A30U A31U it is 3.18; for G5C C6G U7C U10C A30U A31C it is 3.11.
As for G5C C6G U7C U10C C44G A45C, the figure is 5.06; as for G5C C6A U7C G8A U10A C16G, 0.043; as for G5A C6U U7A G8U C9A U32C G33U, 0.0226.
As for G5A C6U U7A G8U C9A U32C G33C, the figure is 0.144.
On to G5A U7C G8A U10C A47U G48C, for which the “exon inclusion enrichment index” value was determined as 1.6.
As for C6A U7C C9A U10C G42U G43C, the figure is 2.05; as for G5A U7C G8A U10C G33A G34U, 0.361.
On to G5C C6G U7C U10C A14G, for which the “exon inclusion enrichment index” value is 1.93.
As for G5C C6G U7C U10C A14C, the figure is 1.99.
The figure for C6A U7C C9A U10C G28A A29U is 1.29.
As for G5C C6G U7C U10C G41A G42U, the figure is 2.89; as for G5C C6A U7C G8A U10A A40C, 0.355.
As for G5A C6G U7G C9A A47G, the “exon inclusion enrichment index” value worked out at 0.00123.
The figure for C6A U7C C9A U10C G41A G42C is 3.64; for G5C C6A U7C G8A U10A A30G A31G it is 0.0207; for G5C C6U G8C C9U U10A G11A it is 0.661.
With A23U C24A, the “exon inclusion enrichment index” value is 0.217.
In the case of C6G U7G C9A, the “exon inclusion enrichment index” value came to 0.0321.
G5C C6U G8C C9U U10C G11A: the “exon inclusion enrichment index” value was 0.742.
As for G5U G8U C9U G33C G34A, the figure is 0.0575; as for G5C C6A U7C G8A U10A G26C U27C, 0.54.
